The source of these data is CN117069831A (SHENZHEN BGI LIFE SCIENCE RES INSTITUTE, dated 2023).

Positions count from the first letter of the chain named.

For one assay, the target named is T1, 非典SARS-CoV-1 spike RBD (SARS-CoV-1, UniProt P59594 306-527).
T1 construct: domain: RBD; also called 非典病毒RBD; 非典SARS-CoV-1RBD
Briefly: ELISA on coated antigen, anti HA HRP. A general note: An ELISA detects its analyte on a solid surface through an enzyme-linked reagent.

In the next assay the target is T2, 野生型SARS-CoV-2 S1抗原 (SARS-CoV-2, UniProt P0DTC2 16-685).
T2 construct: domain: S1; also called SARS-CoV-2S1野生型; S1抗原(义翘)
Briefly: SPR, Biacore T200, antigen coupled to CM5 chip, nanobody as analyte. On the technique in general: SPR reads the build-up and loss of mass on a sensor chip optically.

B1: R-30 (VHH)
VHH: QVQLQESGGGLVQSGGSLRLSCTASGGIIRLNSMGWYRQAPGKQREPVATIVSDVGTNYADSVKGRFTISRDNAKNTIYLQMNSLKFEDTAVYYCVADRAFVLRGEYEYWGQGTQVTVSS
notes: also called 第一株RBD纳米抗体R-30
B1: the EC50 (in general, the concentration at which the effect is half-maximal) in the assay with 非典SARS-CoV-1 spike RBD is 14.7 nM. The Kd (commonly a measure of binding affinity in units of concentration) with 野生型SARS-CoV-2 S1抗原 was ~0.1 nM.

B2: S1-24 (VHH)
VHH: B1 VHH with T23A, I28V, I29S, P41Q, P47L, S53N, K75A, I78V, Q81L, Y94N
notes: also called 第四株RBD纳米抗体S1-24
As to B2, in the assay with 非典SARS-CoV-1 spike RBD, the EC50 stood at 49.3 nM. The equilibrium dissociation constant (Kd) with 野生型SARS-CoV-2 S1抗原 is ~0.1 nM.

B3: S1-28 (VHH)
VHH: B1 VHH with S14P, L85P
notes: also called 第二株RBD纳米抗体S1-28
B3 yielded a concentration for a half-maximal effect (EC50) in the assay with 非典SARS-CoV-1 spike RBD of 11.4 nM. In addition, in the assay with 野生型SARS-CoV-2 S1抗原, the Kd was ~0.1 nM.

B4: S1-51 (VHH)
VHH: B1 VHH with T23A, I28V, I29S, P47L, V52I, K75A, I78V
notes: also called 第三株RBD纳米抗体S1-51
In the case of B4, the half-maximal effective concentration (EC50) with 非典SARS-CoV-1 spike RBD stood at 19.2 nM. The equilibrium dissociation constant (Kd) with 野生型SARS-CoV-2 S1抗原 is ~0.1 nM.
